Experimental findings from publication PMC6677536 (2019) are described below.

Sequence of Full-length Panx, HA-tagged (Q9W2H9 whole entry, the tested form may be a part): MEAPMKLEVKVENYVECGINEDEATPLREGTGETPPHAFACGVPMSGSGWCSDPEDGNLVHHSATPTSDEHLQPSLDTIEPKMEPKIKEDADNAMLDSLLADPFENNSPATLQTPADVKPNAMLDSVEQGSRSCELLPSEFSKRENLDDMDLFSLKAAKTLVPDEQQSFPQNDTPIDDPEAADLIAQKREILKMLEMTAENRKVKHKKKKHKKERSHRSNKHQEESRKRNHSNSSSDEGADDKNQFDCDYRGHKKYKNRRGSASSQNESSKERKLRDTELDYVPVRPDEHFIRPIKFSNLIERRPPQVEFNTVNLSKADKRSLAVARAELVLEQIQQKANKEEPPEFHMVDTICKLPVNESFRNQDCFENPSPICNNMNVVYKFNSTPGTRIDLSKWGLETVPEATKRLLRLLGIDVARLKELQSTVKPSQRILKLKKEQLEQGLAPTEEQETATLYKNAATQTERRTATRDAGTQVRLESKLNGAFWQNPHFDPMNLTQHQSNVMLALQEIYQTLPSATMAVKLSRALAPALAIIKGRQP
Sequence of Full-length Nxf2, 3xFLAG-tagged (from UniProt Q9VV73) aa755-758 (NTF2 mut.3) (Q9VV73 whole entry, change not shown, the tested form may be a part): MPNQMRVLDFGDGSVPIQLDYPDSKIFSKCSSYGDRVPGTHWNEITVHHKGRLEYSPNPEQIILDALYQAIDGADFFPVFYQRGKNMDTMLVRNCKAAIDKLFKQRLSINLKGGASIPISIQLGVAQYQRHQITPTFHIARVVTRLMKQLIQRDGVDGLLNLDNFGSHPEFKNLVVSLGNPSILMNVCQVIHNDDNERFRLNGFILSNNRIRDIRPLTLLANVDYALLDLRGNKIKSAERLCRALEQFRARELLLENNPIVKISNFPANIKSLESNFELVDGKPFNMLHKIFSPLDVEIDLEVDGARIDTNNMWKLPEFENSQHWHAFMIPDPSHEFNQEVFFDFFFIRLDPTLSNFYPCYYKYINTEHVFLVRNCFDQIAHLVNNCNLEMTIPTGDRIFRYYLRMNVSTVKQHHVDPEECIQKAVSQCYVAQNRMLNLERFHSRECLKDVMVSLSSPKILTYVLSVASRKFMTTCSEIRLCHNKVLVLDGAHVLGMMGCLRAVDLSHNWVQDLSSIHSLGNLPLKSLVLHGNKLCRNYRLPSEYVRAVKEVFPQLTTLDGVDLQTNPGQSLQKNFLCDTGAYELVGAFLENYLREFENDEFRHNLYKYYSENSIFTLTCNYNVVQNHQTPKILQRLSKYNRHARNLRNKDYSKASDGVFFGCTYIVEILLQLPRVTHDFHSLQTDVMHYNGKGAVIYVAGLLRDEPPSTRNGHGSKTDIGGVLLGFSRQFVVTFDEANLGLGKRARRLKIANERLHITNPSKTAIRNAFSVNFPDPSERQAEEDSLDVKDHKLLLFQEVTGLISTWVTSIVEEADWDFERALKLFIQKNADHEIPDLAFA
Sequence of Full-length Nxf2, 3xFLAG-tagged (from UniProt Q9VV73) aa835-836 (UBA mut.2) (Q9VV73 whole entry, change not shown, the tested form may be a part): as above
Sequence of Full-length Nxf2, 3xFLAG-tagged (from UniProt Q9VV73) aa754-756 (NTF2 mut.2) (Q9VV73 whole entry, change not shown, the tested form may be a part): as above
Sequence of Full-length Nxf2, 3xFLAG-tagged (from UniProt Q9VV73) aa811-814 (UBA mut.1) (Q9VV73 whole entry, change not shown, the tested form may be a part): as above
Sequence of Full-length Nxf2, 3xFLAG-tagged (from UniProt Q9VV73) aa751-754 (NTF2 mut.1) (Q9VV73 whole entry, change not shown, the tested form may be a part): as above

This experiment concerns the target Full-length Panx, HA-tagged (UniProt Q9W2H9). The experiment can be described thus: FLAG-tag co-immunoprecipitation, western blot quantification. Particulars: lysates of transfected S2 cells; parent: est. 0; read off a plot.
For the substance “Full-length Nxf2, 3xFLAG-tagged (from UniProt Q9VV73) aa751-754 (NTF2 mut.1)”, the log10 ratio (log10 coIP index [arbitrary unit]) was -0.55.
For the substance “Full-length Nxf2, 3xFLAG-tagged (from UniProt Q9VV73) aa754-756 (NTF2 mut.2)”, the log10 ratio (log10 coIP index [arbitrary unit]) is -0.32.
Next, “Full-length Nxf2, 3xFLAG-tagged (from UniProt Q9VV73) aa755-758 (NTF2 mut.3)”: -0.3; “Full-length Nxf2, 3xFLAG-tagged (from UniProt Q9VV73) aa811-814 (UBA mut.1)”: -1.3.
Next, “Full-length Nxf2, 3xFLAG-tagged (from UniProt Q9VV73) aa835-836 (UBA mut.2)”: -0.5.
